Data reported in patent publication US20110262446A1 (published 2011).

B1: M0070-H08 IgG (antibody, V domains shown)
VH: EVQLLESGGGLVQPGGSLRLSCAASGFTFSRYWMIWVRQAPGKGLEWVSSIRSSGETKYADSVKGRFTISRDNSKNTLYLQMNSLRAEDTAVYYCARGPLSDYYDSSGYYFDAFDIWGQGTMVTVSS
VL: DIQMTQSPSSLSASAGDRVTITCRASQSISSYLNWYQQKPGKAPNLLIYTTSNLQGGVPSRFSGSGSGTDFTLTISSLQPEDFATYYCQQGYSFPLTFGGGTKVEIK
B2: M0070-H08 Fab (Fab, V domains shown)
VH: EVQLLESGGGLVQPGGSLRLSCAASGFTFSRYWMIWVRQAPGKGLEWVSSIRSSGETKYADSVKGRFTISRDNSKNTLYLQMNSLRAEDTAVYYCARGPLSDYYDSSGYYFDAFDIWGQGTMVTVSS
VL: DIQMTQSPSSLSASAGDRVTITCRASQSISSYLNWYQQKPGKAPNLLIYTTSNLQGGVPSRFSGSGSGTDFTLTISSLQPEDFATYYCQQGYSFPLTFGGGTKVEIKR
notes: Soluble Fab from phage display; also called M0070-H08(R0032-A07)
B3: M0072-C06 Fab (Fab, V domains shown)
VH: EVQLLESGGGLVQPGGSLRLSCAASGFTFSAYIMTWVRQAPGKGLEWVSSISPSGGYTVYADSVKGRFTISRDNSKNTLYLQMNSLRAEDTAVYYCARDSGFGDPFDYWGQGTMVTVSS
VL: DIQMTQSPSSLSASVGDRVTITCRASQSIRNYLNWYQQKPGKAPKLLIYAASKLEDGVPSRFSGSGTGTDFTLTIRSLQPEDFASYFCQQSYSSPGITFGPGTKVEIKR
notes: Soluble Fab from phage display; Often printed as M0072-006; also called M0072-006; M0072-C06(R0032-A09)
B4: M0072-C06 IgG (antibody, V domains shown)
VH: EVQLLESGGGLVQPGGSLRLSCAASGFTFSAYIMTWVRQAPGKGLEWVSSISPSGGYTVYADSVKGRFTISRDNSKNTLYLQMNSLRAEDTAVYYCARDSGFGDPFDYWGQGTMVTVSS
VL: DIQMTQSPSSLSASVGDRVTITCRASQSIRNYLNWYQQKPGKAPKLLIYAASKLEDGVPSRFSGSGTGTDFTLTIRSLQPEDFASYFCQQSYSSPGITFGPGTKVEIK
B5: M0064-E04 Fab (Fab, V domains shown)
VH: EVQLLESGGGLVQPGGSLRLSCAASGFTFSVYDMNWVRQAPGKGLEWVSSISSSGGGTLYADSVKGRFTISRDNSKNTLYLQMNSLRAEDTAVYYCARDSDTSSYYWYYDLWGRGTLVTVSS
VL: DIQMTQSPSSLSASVGDRVTITCQASHDISNYLNWYQQKPGKAPKLLIYAASRLQSGVPSRFSGGGSGTDFSLTISSLQAEDFATYYCQQSYSFPRTFGQGTNLEIKR
notes: Soluble Fab from phage display; also called M0064-E04(R0032-A03); 566A-M0064-E04
B6: M0073-C11 Fab (Fab, V domains shown)
VH: EVQLLESGGGLVQPGGSLRLSCAASGFTFSPYDMWWVRQAPGKGLEWVSSISSSGGITAYADSVKGRFTISRDNSKNTLYLQMNSLRAEDTAVYYCARAGYSSSWGYYYYGMDVWGQGTTVTVSS
VL: QSALTQPPSVSVSPGQTASITCSGDRLGDKYASWYQQKPGQSPVLVIYQDTKRPSGIPERFSGSNSGSTATLTISGTQAMDEADYYCQAWDSSTVVFGGGTKLTVL
notes: Anti-IGF-IIE Fab; the constant regions are printed only in part; also called 566A-M0073-C11; 566A-X0003-B02
B7: M0063-F02 Fab (Fab, V domains shown)
VH: EVQLLESGGGLVQPGGSLRLSCAASGFTFSKYEMDWVRQAPGKGLEWVSVISSSGGGTIYADSVKGRFTISRDNSKNTLYLQMNSLRAEDTAMYYCARGRTLYGGAFDIWGQGTMVTVSS
VL: DIQMTQSPSSLSASVGDRVTITCRASQPINTYLNWYQQRPGKAPRILIYTSSTLQSGVPSRFSGSGSGTDFTLTISSVQPEDFATYYCQQSYSFPLTFGGGTKVEIKR
notes: Soluble Fab from phage display; also called M0063-F02(R0032-A01)
B8: M0063-F02 IgG (antibody, V domains shown)
VH: EVQLLESGGGLVQPGGSLRLSCAASGFTFSKYEMDWVRQAPGKGLEWVSVISSSGGGTIYADSVKGRFTISRDNSKNTLYLQMNSLRAEDTAMYYCARGRTLYGGAFDIWGQGTMVTVSS
VL: DIQMTQSPSSLSASVGDRVTITCRASQPINTYLNWYQQRPGKAPRILIYTSSTLQSGVPSRFSGSGSGTDFTLTISSVQPEDFATYYCQQSYSFPLTFGGGTKVEIK
notes: IgG form of the Fab; Variable domains as printed for the Fab (LV with its leading Q)
B9: M0072-E03 Fab (Fab, V domains shown)
VH: EVQLLESGGGLVQPGGSLRLSCAASGFTFSEYEMSWVRQAPGKGLEWVSSIYSSGGWTKYTDSVKGRFTISRDNSKNTLYLQMNSLRAEDTAVYYCAKGVHYDSSGLPIDWYFDLWGRGTLVTVSS
VL: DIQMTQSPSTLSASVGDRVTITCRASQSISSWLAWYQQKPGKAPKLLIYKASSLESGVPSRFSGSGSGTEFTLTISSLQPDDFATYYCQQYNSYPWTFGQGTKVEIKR
notes: Soluble Fab from phage display; also called M0072-E03(R0032-C03)
B10: M0072-E03 IgG (antibody, V domains shown)
VH: EVQLLESGGGLVQPGGSLRLSCAASGFTFSEYEMSWVRQAPGKGLEWVSSIYSSGGWTKYTDSVKGRFTISRDNSKNTLYLQMNSLRAEDTAVYYCAKGVHYDSSGLPIDWYFDLWGRGTLVTVSS
VL: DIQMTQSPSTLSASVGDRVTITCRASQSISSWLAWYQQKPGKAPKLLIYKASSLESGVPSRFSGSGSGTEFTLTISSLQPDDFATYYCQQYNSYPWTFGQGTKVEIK
B11: M0072-G06 Fab (Fab, V domains shown)
VH: EVQLLESGGGLVQPGGSLRLSCAASGFTFSEYVMWWVRQAPGKGLEWVSVISPSGGYTVYADSVKGRFTISRDNSKNTLYLQMNSLRAEDTAVYYCARDRGGATTLDYWGQGTLVTVSS
VL: DIQMTQSPSTLSASVGDRVTITCRASQTISSWLAWYQQKPGKAPKLMIYKAASLGSEVPSRFSGSGSGTEFTLTISSLQPEDFSTYYCQQYKTYPVTFGQGTRLEIKR
notes: Soluble Fab from phage display; also called M0072-G06(R0032-C05)
B12: M0072-G06 IgG (antibody, V domains shown)
VH: EVQLLESGGGLVQPGGSLRLSCAASGFTFSEYVMWWVRQAPGKGLEWVSVISPSGGYTVYADSVKGRFTISRDNSKNTLYLQMNSLRAEDTAVYYCARDRGGATTLDYWGQGTLVTVSS
VL: DIQMTQSPSTLSASVGDRVTITCRASQTISSWLAWYQQKPGKAPKLMIYKAASLGSEVPSRFSGSGSGTEFTLTISSLQPEDFSTYYCQQYKTYPVTFGQGTRLEIK
B13: M0064-F02 Fab (Fab, V domains shown)
VH: EVQLLESGGGLVQPGGSLRLSCAASGFTFSNYIMWWVRQAPGKGLEWVSVISSSGGMTRYADSVKGRFTISRDNSKNTLYLQMNSLRAEDTAVYYCARDNGDYVGEKGFDIWGQGTMVTVSS
VL: DIQMTQSPSSLSASVGDRVTITCRASQSISNYLNWYQQKPGKAPKLLIYTASTLQSGVPSRFSGSASGTDFTLTINSLQPEDFATYSCQQSYNSPWTFGQGTKVEIKR
notes: Soluble Fab from phage display; also called M0064-F02(R0032-A11); 566A-M0064-F02
B14: M0064-F02 IgG (antibody, V domains shown)
VH: EVQLLESGGGLVQPGGSLRLSCAASGFTFSNYIMWWVRQAPGKGLEWVSVISSSGGMTRYADSVKGRFTISRDNSKNTLYLQMNSLRAEDTAVYYCARDNGDYVGEKGFDIWGQGTMVTVSS
VL: DIQMTQSPSSLSASVGDRVTITCRASQSISNYLNWYQQKPGKAPKLLIYTASTLQSGVPSRFSGSASGTDFTLTINSLQPEDFATYSCQQSYNSPWTFGQGTKVEIK
notes: IgG form of the Fab; also called non-germlined M0064-F02
B15: M0080-G03 Fab (Fab, V domains shown)
VH: EVQLLESGGGLVQPGGSLRLSCAASGFTFSFYQMMWVRQAPGKGLEWVSSISPSGGRTYYADSVKGRFTISRDNSKNTLYLQMNSLRAEDTAVYYCAKDIGLGYCSSTSCYTGTPLDYWGQGTLVTVSS
VL: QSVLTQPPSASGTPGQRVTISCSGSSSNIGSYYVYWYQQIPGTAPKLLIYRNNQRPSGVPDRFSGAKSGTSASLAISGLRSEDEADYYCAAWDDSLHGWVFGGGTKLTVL
notes: Anti-IGF-IIE Fab; the constant regions are printed only in part; also called 566A-M0080-G03; 566A-X0004-A02

Assays:
[1] = biological target: T1, IGF-II (amino acids 1-67) (human, UniProt P01344 25-91); assay: SPR (Biacore T100): IgG captured on Protein G', ligand bound, then BP injected; competitor BP4
T1 construct: mature; also called IGF-II (67aa); IGF2
T1 sequence (P01344 25-91): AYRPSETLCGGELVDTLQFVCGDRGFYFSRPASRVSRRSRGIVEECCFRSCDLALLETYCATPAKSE
Experimental: (§1) BIACORE® T100 and a CM5 chip coated with Protein G were utilised to set up following assay. Approximately 1000 RU of Protein G′ was immobilized on a CM5 chip using standard amine chemistry immobilization method. Entire assay consisted of three sequential injection of following four reagents 1) Candidate IgG was injected onto Protein G′ at 10 ug/ml at 5 ul/min for 180 sec.

[2] = biological target: T1, IGF-II (amino acids 1-67); assay: SPR (Biacore T100): IgG captured on Protein G', ligand bound, then BP injected; competitor BP2
Experimental: as §1

[3] = biological target: T1, IGF-II (amino acids 1-67); assay: competition SPR (Biacore T100), affinity in solution: Fab pre-incubated with ligand, free ligand read on immobilized huIR-A ECD; measurement #1; head prints 'KD nM'
Experimental: (§2) Competition SPR (BIACORE®) was performed under conditions of partially mass-transport limited conditions according to previously described methodology (Nieba et al., 1996). Approximately 16,700 relative response units (RU) of huIR-A (-exon11) ectodomain was coupled by standard amine chemistry to a BIACORE® CM5 chip sensor. Uncoated flow-cell surface was used as a reference. […] Regeneration of the surface was achieved by injection of 30 ul NaCltrate/NaCl pH 4.5. […] These Req estimates were subsequently plotted against total concentrations of Fab used and the resulting inhibition curve was utilised to calculate dissociation constant (KD).

[4] = biological target: T1, IGF-II (amino acids 1-67); assay: SPR (Flexchip), Fab, first of duplicate; unit inferred
[5] = biological target: T1, IGF-II (amino acids 1-67); assay: SPR (Flexchip), Fab, second of duplicate; unit inferred
[6] = biological target: T1, IGF-II (amino acids 1-67); assay: cell-based or functional assay
[7] = biological target: T1, IGF-II (amino acids 1-67); assay: competition SPR (Biacore T100), affinity in solution: Fab pre-incubated with ligand, free ligand read on immobilized huIR-A ECD; measurement #2; head prints 'KD nM'
Experimental: as §2

[8] = biological target: IGF-I (UniProt P05019 49-118); assay: cell-based or functional assay
Chain of IGF-I (P05019 49-118 limits assumed): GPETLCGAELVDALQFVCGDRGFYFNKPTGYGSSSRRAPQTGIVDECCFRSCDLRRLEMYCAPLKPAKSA

[9] = biological target: T1, IGF-II (amino acids 1-67); assay: competition SPR (Biacore T100) on immobilized huIR-A ECD, measurement #1
Experimental: as §2

[10] = biological target: T1, IGF-II (amino acids 1-67); assay: cell-based or functional assay; remark: listed apart in the source
[11] = biological target: T1, IGF-II (amino acids 1-67); assay: SPR (Biacore), non-germlined IgG

Binder	competition score (0 = does not compete significantly, 5 = competes strongly) [1]	competition score (0 = does not compete significantly, 5 = competes strongly) [2]	Kd [3]	Kd [4]	Kd [5]	IC50, IGF-II stimulated BA/F3 cell proliferation (MTS) [6]	decrease in IGF-I stimulated cell proliferation, sFab at 50 µg/ml [8]	further results
B1	2 score 0-5	3 score 0-5	–	–	–	–	–	–
B2	–	–	3.24 nM	3.3 nM	1.1 nM	–	–	–
B3	–	–	1.64 nM	5.2 nM	0.7 nM	5.12 µg/mL	~30%	Kd [7]: 2.52 nM
B4	2 score 0-5	3 score 0-5	–	–	–	–	–	–
B5	–	–	0.608 nM	0.12 nM	0.25 nM	3.04 µg/mL	~30%	Kd [7]: 1.11 nM
B6	–	–	–	–	–	–	–	binding result [9]: no binding
B7	–	–	1.17 nM	0.77 nM	1.6 nM	5.56 µg/mL	~30%	Kd [7]: 0.858 nM
B8	0 score 0-5	1 score 0-5	–	–	–	–	–	IC50, IGF-II stimulated BaF3 cell proliferation (Guava ViaCount) [10]: 2 nM; IC50, IGF-II stimulated BaF3 cell proliferation (Guava ViaCount), second study [10]: ~7 nM
B9	–	–	2.62 nM	0.75 nM	0.3 nM	–	~30%	–
B10	4 score 0-5	4 score 0-5	–	–	–	–	–	–
B11	–	–	3.99 nM	0.58 nM	1.4 nM	8.7 µg/mL	–	–
B12	1 score 0-5	2 score 0-5	–	–	–	–	–	–
B13	–	–	1.03 nM	0.45 nM	1.2 nM	0.68 µg/mL	~30%	Kd [7]: 0.503 nM
B14	4 score 0-5	4 score 0-5	–	–	–	–	–	Kd [11]: 0.14 nM
B15	–	–	–	–	–	–	–	binding result [9]: no binding
